Data on 42 variants can be found in the Human Domainome abundance scans (Beltran et al. 2025).

± gives the uncertainty stated by the source.

The chains are these.
B1: Tumor protein p73, residues 487 to 549; numbered along this chain, O15350 (parent)
chain: YHADPSLVSFLTGLGCPNCIEYFTSQGLQSIYHLQNLTIEDLGALKIPEQYRMTIWRGLQDLK

The variants in this series derive from B1. As to the kind of experiment: abundance fitness (aPCA) (normalised: wild type 0, dead -1); higher = more abundant; growth selection in yeast, the domain comes from the species named. The conditions noted are these: Homo sapiens.
In the case of YHADPSLVSFLTGYGCPNCIEYFTSQGLQSIYHLQNLTIEDLGALKIPEQYRMTIWRGLQDLK [L14Y], the abundance fitness was -0.315 ± 0.095. With YHADPSLVSFLTGFGCPNCIEYFTSQGLQSIYHLQNLTIEDLGALKIPEQYRMTIWRGLQDLK [L14F] the figure was -0.493 ± 0.058; with YHADPSLVSFLTGQGCPNCIEYFTSQGLQSIYHLQNLTIEDLGALKIPEQYRMTIWRGLQDLK [L14Q], -0.298 ± 0.077.

For the variant YHADPSLVSFLTGRGCPNCIEYFTSQGLQSIYHLQNLTIEDLGALKIPEQYRMTIWRGLQDLK [L14R], the abundance fitness was -0.353 ± 0.038.

Turning to YHADPSLVSFLTGTGCPNCIEYFTSQGLQSIYHLQNLTIEDLGALKIPEQYRMTIWRGLQDLK [L14T], the abundance fitness is -0.307 ± 0.066.

YHADPSLVSFLTGMGCPNCIEYFTSQGLQSIYHLQNLTIEDLGALKIPEQYRMTIWRGLQDLK [L14M]: the abundance fitness is -0.136 ± 0.057. With YHADPSLVSFLTGDGCPNCIEYFTSQGLQSIYHLQNLTIEDLGALKIPEQYRMTIWRGLQDLK [L14D] the figure was -0.923 ± 0.18; with YHADPSLVSFLTGPGCPNCIEYFTSQGLQSIYHLQNLTIEDLGALKIPEQYRMTIWRGLQDLK [L14P], -0.949 ± 0.18; with YHADPSLVSFLTGEGCPNCIEYFTSQGLQSIYHLQNLTIEDLGALKIPEQYRMTIWRGLQDLK [L14E], -0.53 ± 0.071.

In the case of YHADPSLVSFLTGHGCPNCIEYFTSQGLQSIYHLQNLTIEDLGALKIPEQYRMTIWRGLQDLK [L14H], the abundance fitness is -0.231 ± 0.082.

YHADPSLVSFLTGIGCPNCIEYFTSQGLQSIYHLQNLTIEDLGALKIPEQYRMTIWRGLQDLK [L14I]: the abundance fitness worked out at 0.009 ± 0.051. Turning to YHADPSLVSFLTGAGCPNCIEYFTSQGLQSIYHLQNLTIEDLGALKIPEQYRMTIWRGLQDLK [L14A], the abundance fitness was -0.193 ± 0.042. In the case of YHADPSLVSFLTGVGCPNCIEYFTSQGLQSIYHLQNLTIEDLGALKIPEQYRMTIWRGLQDLK [L14V] it was 0.024 ± 0.031; in that of YHADPSLVSFLTGWGCPNCIEYFTSQGLQSIYHLQNLTIEDLGALKIPEQYRMTIWRGLQDLK [L14W], -0.542 ± 0.073; in that of YHADPSLVSFLTGSGCPNCIEYFTSQGLQSIYHLQNLTIEDLGALKIPEQYRMTIWRGLQDLK [L14S], -0.407 ± 0.063. In the case of YHADPSLVSFLTGKGCPNCIEYFTSQGLQSIYHLQNLTIEDLGALKIPEQYRMTIWRGLQDLK [L14K], the abundance fitness was -0.174 ± 0.1. YHADPSLVSFLTGGGCPNCIEYFTSQGLQSIYHLQNLTIEDLGALKIPEQYRMTIWRGLQDLK [L14G]: the abundance fitness is -0.989 ± 0.079. With YHADPSLVSFLTELGCPNCIEYFTSQGLQSIYHLQNLTIEDLGALKIPEQYRMTIWRGLQDLK [G13E] the figure was 0.047 ± 0.052; with YHADPSLVSFLTTLGCPNCIEYFTSQGLQSIYHLQNLTIEDLGALKIPEQYRMTIWRGLQDLK [G13T], -0.012 ± 0.047; with YHADPSLVSFLTSLGCPNCIEYFTSQGLQSIYHLQNLTIEDLGALKIPEQYRMTIWRGLQDLK [G13S], 0.034 ± 0.038. With YHADPSLVSFLTPLGCPNCIEYFTSQGLQSIYHLQNLTIEDLGALKIPEQYRMTIWRGLQDLK [G13P] the figure was -0.183 ± 0.064; with YHADPSLVSFLTQLGCPNCIEYFTSQGLQSIYHLQNLTIEDLGALKIPEQYRMTIWRGLQDLK [G13Q], 0.024 ± 0.047; with YHADPSLVSFLTILGCPNCIEYFTSQGLQSIYHLQNLTIEDLGALKIPEQYRMTIWRGLQDLK [G13I], -0.138 ± 0.071.

As to YHADPSLVSFLTCLGCPNCIEYFTSQGLQSIYHLQNLTIEDLGALKIPEQYRMTIWRGLQDLK [G13C], the abundance fitness was -0.142 ± 0.077. Consider YHADPSLVSFLTNLGCPNCIEYFTSQGLQSIYHLQNLTIEDLGALKIPEQYRMTIWRGLQDLK [G13N], for which the abundance fitness was 0.216 ± 0.22. Consider YHADPSLVSFLTYLGCPNCIEYFTSQGLQSIYHLQNLTIEDLGALKIPEQYRMTIWRGLQDLK [G13Y], for which the abundance fitness was -0.185 ± 0.093. In the case of YHADPSLVSFLTRLGCPNCIEYFTSQGLQSIYHLQNLTIEDLGALKIPEQYRMTIWRGLQDLK [G13R] it was 0.008 ± 0.031; in that of YHADPSLVSFLTMLGCPNCIEYFTSQGLQSIYHLQNLTIEDLGALKIPEQYRMTIWRGLQDLK [G13M], -0.075 ± 0.048; in that of YHADPSLVSFLTLLGCPNCIEYFTSQGLQSIYHLQNLTIEDLGALKIPEQYRMTIWRGLQDLK [G13L], -0.124 ± 0.035. YHADPSLVSFLTALGCPNCIEYFTSQGLQSIYHLQNLTIEDLGALKIPEQYRMTIWRGLQDLK [G13A]: the abundance fitness is -0.021 ± 0.035. For YHADPSLVSFLTHLGCPNCIEYFTSQGLQSIYHLQNLTIEDLGALKIPEQYRMTIWRGLQDLK [G13H], the abundance fitness turned out to be 0.11 ± 0.058. With YHADPSLVSFLTVLGCPNCIEYFTSQGLQSIYHLQNLTIEDLGALKIPEQYRMTIWRGLQDLK [G13V] the figure was -0.223 ± 0.054; with YHADPSLVSFLTFLGCPNCIEYFTSQGLQSIYHLQNLTIEDLGALKIPEQYRMTIWRGLQDLK [G13F], -0.172 ± 0.056. Turning to YHADPSLVSFLTWLGCPNCIEYFTSQGLQSIYHLQNLTIEDLGALKIPEQYRMTIWRGLQDLK [G13W], the abundance fitness was -0.315 ± 0.051.

As for YHADPSLVSFLIGLGCPNCIEYFTSQGLQSIYHLQNLTIEDLGALKIPEQYRMTIWRGLQDLK [T12I], the abundance fitness is -0.032 ± 0.04. With YHADPSLVSFLWGLGCPNCIEYFTSQGLQSIYHLQNLTIEDLGALKIPEQYRMTIWRGLQDLK [T12W] the figure was -0.216 ± 0.035; with YHADPSLVSFLMGLGCPNCIEYFTSQGLQSIYHLQNLTIEDLGALKIPEQYRMTIWRGLQDLK [T12M], 0.021 ± 0.045; with YHADPSLVSFLCGLGCPNCIEYFTSQGLQSIYHLQNLTIEDLGALKIPEQYRMTIWRGLQDLK [T12C], -0.386 ± 0.065. In the case of YHADPSLVSFLQGLGCPNCIEYFTSQGLQSIYHLQNLTIEDLGALKIPEQYRMTIWRGLQDLK [T12Q] it was 0.031 ± 0.045; in that of YHADPSLVSFLVGLGCPNCIEYFTSQGLQSIYHLQNLTIEDLGALKIPEQYRMTIWRGLQDLK [T12V], -0.061 ± 0.028; in that of YHADPSLVSFLDGLGCPNCIEYFTSQGLQSIYHLQNLTIEDLGALKIPEQYRMTIWRGLQDLK [T12D], 0.236 ± 0.099. With YHADPSLVSFLKGLGCPNCIEYFTSQGLQSIYHLQNLTIEDLGALKIPEQYRMTIWRGLQDLK [T12K] the figure was 0.087 ± 0.051.
